Experimental findings from the supplement of paper PMC10567573 are described below.

± gives the standard deviation.

The nature of this data set: protein stability index of a GFP-peptide fusion (GPS, HEK-293T) (PSI 1-6); higher = more stable. As to conditions: c terminus: a fixed tail appended.
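Note: 24-mer peptide tiles fused after GFP, lentivirally expressed, FACS-sorted into six equal bins by GFP/DsRed ratio, decoded by Illumina sequencing, PSI is the read-weighted mean bin number.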

For the sequence ALSKHFIPYNAKFLGSTEVEQPKG [GULP1], the protein stability index (treatment: DMSO) was determined as 3.19 ± 0.23 and the protein stability index (treatment: MLN4924 1 uM, 8 h) is 3.55 ± 0.2.

Turning to ALSTERELFAWGRGDSGRLGLGTR [NEK8], the protein stability index is, setting by setting: (treatment: DMSO) 3.56 ± 0.17; (treatment: MLN4924 1 uM, 8 h) 3.46 ± 0.42.

The sequence ALVSAHSEWQRKLEAAEALLTLRN [DMRTC1] gave a protein stability index (treatment: DMSO) of 3.44 ± 0.24 and a protein stability index (treatment: MLN4924 1 uM, 8 h) of 3.57 ± 0.17.

For AMLDEISLMDLAIEEGFNPVQASQ [NFE2L1], the protein stability index reads like this: (treatment: DMSO) 3.53 ± 0.39; (treatment: MLN4924 1 uM, 8 h) 3.66 ± 0.2.

For the sequence ANSLLASPTGLSPYLRFGCLSCRL [CRY1], the protein stability index (treatment: DMSO) was found to be 2.15 ± 0.27 and the protein stability index (treatment: MLN4924 1 uM, 8 h) worked out at 2.37 ± 0.32.

In the case of APAVEVAPAGASYNPSFEDHQTLL [NOP53], the protein stability index was 4.84 ± 0.12 (treatment: DMSO) and 5.14 ± 0.25 (treatment: MLN4924 1 uM, 8 h).

As to APDRLRASASCSHWRECLFYPALW [FBXO33], the protein stability index is 2.33 ± 0.43 (treatment: DMSO) and 2.28 ± 0.26 (treatment: MLN4924 1 uM, 8 h).

With APGDLSATEPATCFPSTQKPTEPS [FBF1], the protein stability index was found to be 5.22 ± 0.22 (treatment: DMSO) and 5.343 ± 0.051 (treatment: MLN4924 1 uM, 8 h).

As for APGPSRIADYLLLPLAEREHVSRA [TRIB1], the protein stability index was determined as 3 ± 0.46 (treatment: DMSO) and 3.38 ± 0.77 (treatment: MLN4924 1 uM, 8 h).

In the case of APGVLTNKRKTYTESYIARPDGDC [ZC2HC1A], the protein stability index by setting is: (treatment: DMSO) 4.27 ± 0.12; (treatment: MLN4924 1 uM, 8 h) 4.29 ± 0.3.

For the sequence AQEEEEEDQGRTRKRKQSGHSPAR [DDIT3], the protein stability index is, setting by setting: (treatment: DMSO) 5.47 ± 0.31; (treatment: MLN4924 1 uM, 8 h) 5.7 ± 0.24.

Turning to AQQWRRARHNYNDLCPPIGRRAAT [GNAS], the protein stability index by setting is: (treatment: DMSO) 3.58 ± 0.3; (treatment: MLN4924 1 uM, 8 h) 3.6 ± 0.16.

As to ARAFAQRYLADLLPSVFGSLRDSG [RSPH3], the protein stability index is, setting by setting: (treatment: DMSO) 2.29 ± 0.41; (treatment: MLN4924 1 uM, 8 h) 2.25 ± 0.28.

In the case of ASAIKKEELVARSETHAAGHSQEK [CHGB], the protein stability index was 5.4 ± 0.43 (treatment: DMSO) and 5.37 ± 0.31 (treatment: MLN4924 1 uM, 8 h).

For ASAQPLPAPEAAHTTGPTGSAPNS [TFE3], the protein stability index (treatment: DMSO) stood at 5.35 ± 0.18 and the protein stability index (treatment: MLN4924 1 uM, 8 h) worked out at 5.46 ± 0.15.

Turning to ASCLQELFKAHFRGEVLPEEITEE [INTS3], the protein stability index runs as follows: (treatment: DMSO) 3.71 ± 0.34; (treatment: MLN4924 1 uM, 8 h) 3.95 ± 0.12.

For the sequence ASEPLPWDLRFRIIHETAVGMNFL [RIPK4], the protein stability index by setting is: (treatment: DMSO) 2.43 ± 0.15; (treatment: MLN4924 1 uM, 8 h) 2.33 ± 0.19.

In the case of ASFYACRLDKHLYVIGGRNETGYL [KLHL14], the protein stability index runs as follows: (treatment: DMSO) 2.7 ± 0.54; (treatment: MLN4924 1 uM, 8 h) 2.54 ± 0.95.

On to ASSGSNSSASSEQGLLGRSPPTRP [SPRY1], for which the protein stability index is, setting by setting: (treatment: DMSO) 5.19 ± 0.34; (treatment: MLN4924 1 uM, 8 h) 5.38 ± 0.2.

Consider ASVSSHRFFGPNAEISQPPALSQL [TCF25], for which the protein stability index (treatment: DMSO) came out at 3.35 ± 0.46 and the protein stability index (treatment: MLN4924 1 uM, 8 h) came out at 3.29 ± 0.35.

Take ASYDKTVRAWDLETGKLLWKVRYD [WDR88]: the protein stability index (treatment: DMSO) was 2.31 ± 0.4 and the protein stability index (treatment: MLN4924 1 uM, 8 h) is 2.14 ± 0.31.

As to ASYVVFRIIYMLLITIATFQIAAN [SLC19A2], the protein stability index is, setting by setting: (treatment: DMSO) 3.09 ± 0.94; (treatment: MLN4924 1 uM, 8 h) 3.19 ± 0.18.

In the case of ATGDYLFEPHSGEDYSRDEDHIAH [SRPK2], the protein stability index is 5.23 ± 0.2 (treatment: DMSO) and 5.28 ± 0.27 (treatment: MLN4924 1 uM, 8 h).

In the case of ATVWSSNVGRVHRVAKKLQSGLVW [ALDH8A1], the protein stability index was found to be 2.81 ± 0.87 (treatment: DMSO) and 2.24 ± 0.96 (treatment: MLN4924 1 uM, 8 h).

ATWMLEVCEEQKCEEEVFPLAMNY [CCND1]: the protein stability index worked out at 3.61 ± 0.16 (treatment: DMSO) and 3.77 ± 0.25 (treatment: MLN4924 1 uM, 8 h).

AVGGRDDTTELSSAERYNPRTNQW [KLHL20]: the protein stability index runs as follows: (treatment: DMSO) 4.47 ± 0.21; (treatment: MLN4924 1 uM, 8 h) 4.5 ± 0.16.

In the case of AVRKLKFARHIKKSEGQKIPKVEL [GULP1], the protein stability index by setting is: (treatment: DMSO) 3.1 ± 0.091; (treatment: MLN4924 1 uM, 8 h) 3.13 ± 0.21.

Take AVSQPFRLSSSLQGSAVTLKTSKM [CDC14A]: the protein stability index is 3.77 ± 0.3 (treatment: DMSO) and 3.71 ± 0.28 (treatment: MLN4924 1 uM, 8 h).

Take AVWLIFFMLGLGTLLPWNFFMTAT [SLC29A1]: the protein stability index came out at 3.09 ± 0.66 (treatment: DMSO) and 2.6 ± 0.12 (treatment: MLN4924 1 uM, 8 h).

In turn, AYSLNKIHAYNLGTNAWEEIATKP [KLHDC10] came in with a protein stability index (treatment: DMSO) of 2.56 ± 0.39 and a protein stability index (treatment: MLN4924 1 uM, 8 h) of 2.79 ± 0.57.

For CFARKSQLTGHQRIHSGEEPHKCP [ZNF449], the protein stability index is, setting by setting: (treatment: DMSO) 3.64 ± 0.1; (treatment: MLN4924 1 uM, 8 h) 4.01 ± 0.18.

For CFKNWDGSPVSSWILLAESNSADD [OAS1], the protein stability index (treatment: DMSO) was 3.04 ± 0.24 and the protein stability index (treatment: MLN4924 1 uM, 8 h) is 3.38 ± 0.4.

Regarding CGERLSLGLSRAQPVQSKPQKASA [PDLIM7], the protein stability index was 3.85 ± 0.38 (treatment: DMSO) and 4.06 ± 0.33 (treatment: MLN4924 1 uM, 8 h).

Turning to CGTPEYLAPEVIQSKGHGRAVDWW [PRKX], the protein stability index is, setting by setting: (treatment: DMSO) 2.72 ± 0.54; (treatment: MLN4924 1 uM, 8 h) 2.45 ± 0.15.

In the case of CHKYDRNIQVTGSAALFYLTNSEY [ZER1], the protein stability index amounted to 2.28 ± 0.34 (treatment: DMSO) and 1.97 ± 0.23 (treatment: MLN4924 1 uM, 8 h).

Take CIDIVIRHVAPIPSHYDVQDRFRI [MOSPD3]: the protein stability index is 2.77 ± 0.61 (treatment: DMSO) and 2.93 ± 0.55 (treatment: MLN4924 1 uM, 8 h).
